Changes are numbered by the printed parent chain.
B1: CD19-TCB, CD19(018) CD3orig (bispecific antibody, human IgG1, kappa, L234A L235A)
heavy 1: not shown
heavy 2: QVQLVQSGAEVKKPGASVKVSCKASGYTFTDYIMHWVRQAPGQGLEWMGYINPYNDGSKYTEKFQGRVTMTSDTSISTAYMELSRLRSDDTAVYYCARGTYYYGSALFDYWGQGTTVTVSSASTKGPSVFPLAPSSKSTSGGTAALGCLVEDYFPEPVTVSWNSGALTSGVHTFPAVLQSSGLYSLSSVVTVPSSSLGTQTYICNVNHKPSNTKVDEKVEPKSCDKTHTCPPCPAPEAAGGPSVFLFPPKPKDTLMISRTPEVTCVVVDVSHEDPEVKFNWYVDGVEVHNAKTKPREEQYNSTYRVVSVLTVLHQDWLNGKEYKCKVSNKALGAPIEKTISKAKGQPREPQVCTLPPSRDELTKNQVSLSCAVKGFYPSDIAVEWESNGQPENNYKTTPPVLDSDGSFFLVSKLTVDKSRWQQGNVFSCSVMHEALHNHYTQKSLSLSP
light 1: DIVMTQTPLSLSVTPGQPASISCKSSQSLENPNGNTYLNWYLQKPGQSPQLLIYRVSKRFSGVPDRFSGSGSGTDFTLKISRVEAEDVGVYYCLQLTHVPYTFGQGTKLEIKRTVAAPSVFIFPPSDRKLKSGTASVVCLLNNFYPREAKVQWKVDNALQSGNSQESVTEQDSKDSTYSLSSTLTLSKADYEKHKVYACEVTHQGLSSPVTKSFNRGEC
light 2: EVQLLESGGGLVQPGGSLRLSCAASGFTFSTYAMNWVRQAPGKGLEWVSRIRSKYNNYATYYADSVKGRFTISRDDSKNTLYLQMNSLRAEDTAVYYCVRHGNFGNSYVSWFAYWGQGTLVTVSSASVAAPSVFIFPPSDEQLKSGTASVVCLLNNFYPREAKVQWKVDNALQSGNSQESVTEQDSKDSTYSLSSTLTLSKADYEKHKVYACEVTHQGLSSPVTKSFNRGEC
notes: 2+1 IgG CrossFab, inverted; human IgG1 Fc, knob-into-hole, PGLALA
B2: anti-CD3 antibody clone P035.093 in monovalent IgG format (antibody)
heavy: not shown
chain: DKTHTCPPCPAPEAAGGPSVFLFPPKPKDTLMISRTPEVTCVVVDVSHEDPEVKFNWYVDGVEVHNAKTKPREEQYNSTYRVVSVLTVLHQDWLNGKEYKCKVSNKALGAPIEKTISKAKGQPREPQVCTLPPSRDELTKNQVSLSCAVKGFYPSDIAVEWESNGQPENNYKTTPPVLDSDGSFFLVSKLTVDKSRWQQGNVFSCSVMHEALHNHYTQKSLSLSP
light: B1 light 2 with T31S, H101A, G102S, G105P, N106A, W111Y
notes: also called monovalent IgG P035.093
B3: CD19-TCB, CD19(2B11) CD3 variant P035.093 (bispecific antibody, human IgG1, kappa, L234A L235A)
heavy 1: not shown
heavy 2: B1 heavy 2 with S105P, A106Q
light 1: B1 light 1 with N31T, P32S, N33T, N35T, T97L, H98E, V99D
light 2: B1 light 2 with T31S, H101A, G102S, G105P, N106A, W111Y
notes: as for B1
B4: CD3orig in monovalent IgG format (antibody)
heavy: not shown
chain: B2 chain
light: B1 light 2
notes: also called monovalent IgG CD3orig
B5: CD19-TCB, CD19(018) CD3 variant P035.093 (bispecific antibody, human IgG1, kappa, L234A L235A)
heavy 1: not shown
heavy 2: B1 heavy 2
light 1: B1 light 1
light 2: B1 light 2 with T31S, H101A, G102S, G105P, N106A, W111Y
notes: as for B1
B6: CD19-TCB, CD19(2B11) CD3orig (bispecific antibody, human IgG1, kappa, L234A L235A)
heavy 1: not shown
heavy 2: B1 heavy 2 with S105P, A106Q
light 1: B1 light 1 with N31T, P32S, N33T, N35T, T97L, H98E, V99D
light 2: B1 light 2
notes: as for B1

How the values were obtained:
[1] = molecular target: T1, human CD19 on cells (Nalm-6, Z-138) (human, UniProt P15391 20-556); test: flow cytometry on Nalm-6 cells
T1 construct: whole, on cells; also called CD19-expressing cells; CD19+ target cells
T1 sequence (looked up): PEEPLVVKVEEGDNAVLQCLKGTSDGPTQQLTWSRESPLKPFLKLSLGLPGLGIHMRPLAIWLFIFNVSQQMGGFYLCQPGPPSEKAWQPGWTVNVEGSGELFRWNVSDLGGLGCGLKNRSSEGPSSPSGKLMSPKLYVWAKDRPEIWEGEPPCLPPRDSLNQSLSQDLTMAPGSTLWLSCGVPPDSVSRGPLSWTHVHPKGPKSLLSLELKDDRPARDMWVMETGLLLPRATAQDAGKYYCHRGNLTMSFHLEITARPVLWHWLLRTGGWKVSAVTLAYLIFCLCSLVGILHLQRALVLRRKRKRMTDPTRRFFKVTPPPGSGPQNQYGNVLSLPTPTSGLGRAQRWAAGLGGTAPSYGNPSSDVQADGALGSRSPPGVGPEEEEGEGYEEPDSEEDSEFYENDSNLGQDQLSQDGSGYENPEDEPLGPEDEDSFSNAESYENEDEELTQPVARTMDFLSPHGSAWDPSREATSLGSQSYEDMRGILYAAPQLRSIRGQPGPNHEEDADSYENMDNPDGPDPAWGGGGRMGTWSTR
Description: (§1) The binding of the CD19-TCB molecules prepared in Example 15 to human CD19- and CD3-expressing target cells was tested. Two CD19-expressing cell lines with different levels of CD19 expression were used. Nalm-6, an acute lymphoblastic leukemia (ALL) cell line with high CD 19 expression and Z-138 (Mantle cell lymphoma) with average expression levels. CD3-binding was assessed using immortalized T lymphocyte line (Jurkat cell line). Briefly, cells were harvested, counted, checked for viability and resuspended at 1×10⁶ cells/ml in FACS buffer (PBS+2% FCS+5 mM EDTA+0.25% sodium azide). […] Binding curves and the EC50 values related to binding were calculated using GraphPad Prism 7.

[2] = molecular target: T2, Human CD3ε stalk-Fc(knob)-Avi/CD3δ stalk-Fc(hole) (human); test: SPR, TCB captured by anti-PG antibody, human CD3ε/δ-Fc as analyte, 25°C
T2 construct: Heterodimer of CD3 delta and CD3 epsilon ectodomains fused to human Fc with knob-into-hole; also called human CD3ε/δ; CD3 antigen
Description: (§2) SPR experiments were performed, using the CD19-TCB molecules prepared in Example 15, on a Biacore T200 instrument at 25° C. with HBS-EP+ as running buffer (0.01 M HEPES pH 7.4, 0.15 M NaCl, 0.005% Surfactant P20 (GE Healthcare, #BR-1006-69)). Anti-PG antibody (see Example 3) was directly immobilized by amine coupling on a C1 chip (GE Healthcare). The different TCB molecules were captured at 25 nM. Three-fold dilution series (in HBS-EP from 0.14 to 100 nM) of the CD19 antigen (CD19 extracellular domain (ECD)-Fc fusion; see SEQ ID NOs 99 and 100) or the CD3 antigen (see Example 3, SEQ ID NOs 41 and 42) were passed over the ligand at 30 μl/min for 240 s to record the association phase. The dissociation phase was monitored for 1500 s (CD19 antigen) or 800 s (CD3 antigen)s and triggered by switching from the sample solution to HBS-EP+. The chip surface was regenerated after every cycle using two injections of 10 mM glycine pH 2.1 for 60 sec. Bulk refractive index differences were corrected for by subtracting the response obtained on the reference flow cell (without captured TCB). The affinity constants were derived from the kinetic rate constants by fitting to a 1:1 Langmuir binding using the Biaeval software (GE Healthcare). The measurement was performed with three independent dilution series.

[3] = molecular target: T1, human CD19 on cells (Nalm-6, Z-138); test: cell-based or functional assay
[4] = molecular target: T3, CD19 extracellular domain (ECD)-Fc fusion (human, UniProt P01857 104-328 = IgG part); test: SPR, TCB captured by anti-PG antibody, CD19 ECD-Fc as analyte, 25°C
T3 construct: Monovalent CD19 ECD on a knob-into-hole Fc; also called CD19 antigen; recombinant human CD19
Description: as §2

[5] = molecular target: T4, human CD3 on cells (CD3ε) (human, UniProt P07766 23-207); test: flow cytometry on Jurkat cells
T4 construct: CD3 complex as it stands on Jurkat cells or primary T cells; also called CD3-expressing Jurkat cells; CD3-expressing T cells
Description: as §1

[6] = molecular target: T5, Cynomolgus CD3ε stalk-Fc(knob)-Avi/CD3δ stalk-Fc(hole) (cynomolgus); test: SPR, monovalent IgG captured by anti-PG antibody, antigen as analyte, 25°C
T5 construct: also called cynomolgus CD3ε/δ
Description: (§3) SPR experiments were performed as described in Example 3, with the monovalent IgG molecules prepared in Example 19.
(§4) To analyze the interaction to CD3, IgG molecules were captured for 240 s at 50 nM with a flow rate of 5 μl/min. Human and cynomolgus CD3F stalk-Fc(knob)-Avi/CD36-stalk-Fc(hole) were passed at a concentration of 0.061-250 nM with a flow rate of […] through the flow cells for 300 s. The dissociation was monitored for 800 s.

[7] = molecular target: T2, Human CD3ε stalk-Fc(knob)-Avi/CD3δ …; test: as above
Description: as §3, §4

[8] = molecular target: T2, Human CD3ε stalk-Fc(knob)-Avi/CD3δ …; test: SPR on immobilized human CD3ε/δ after stress, relative to sample kept at -80°C pH 6
Description: All SPR experiments were performed on a Biacore T200 instrument (GE Healthcare) at 25° C. with HBS-P+ (10 mM HEPES, 150 mM NaCl pH 7.4, 0.05% Surfactant P20) as running and dilution buffer. Biotinylated human CD3ε/δ (see Example 3, SEQ ID NOs 41 and 42) as well as biotinylated anti-huIgG (Capture Select, Thermo Scientific, #7103262100) were immobilized on a Series S Sensor Chip SA (GE Healthcare, #29104992), resulting in surface densities of at least 1000 resonance units (RU). Anti-CD3 antibodies with a concentration of 2 μg/ml were injected for 30 s at a flow rate of 5 μl/min, and dissociation was monitored for 120 s. The surface was regenerated by injecting 10 mM glycine pH 1.5 for 60 s. Bulk refractive index differences were corrected by subtracting blank injections and by subtracting the response obtained from a blank control flow cell. For evaluation, the binding response 5 seconds after injection end was taken. To normalize the binding signal, the CD3 binding was divided by the anti-huIgG response (the signal (RU) obtained upon capture of the CD3 antibody on the immobilized anti-huIgG antibody). The relative binding activity was calculated by referencing each temperature stressed sample to the corresponding, non-stressed sample.
The experiment was performed as described in Example 4, using the monovalent IgG molecules prepared in Example 19.

T4 sequence (P07766 23-207 limits assumed): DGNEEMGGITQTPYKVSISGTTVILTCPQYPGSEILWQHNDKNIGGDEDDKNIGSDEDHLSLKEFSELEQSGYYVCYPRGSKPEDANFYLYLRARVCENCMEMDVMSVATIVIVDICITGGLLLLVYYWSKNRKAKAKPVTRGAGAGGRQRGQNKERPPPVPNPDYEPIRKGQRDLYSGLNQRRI

Binder	EC50 [1]	Kd [2]	koff [2]	kon [2]	t1/2 [2]	EC50 (pM) of tumor cell lysis, Nalm-6 target cells [3]	EC50 (pM) of tumor cell lysis, Z-138 target cells [3]	Kd [4]	koff [4]	kon [4]	t1/2 [4]	EC50 [5]	Kd [7]	koff [7]	kon [7]	t1/2 [7]	binding activity [%] after 2 weeks at pH 6.0/40°C [8]	binding activity [%] after 2 weeks at pH 7.4/37°C [8]	further results
B1	1.5 nM	3.57 nM	0.00333 s⁻¹	933000 M⁻¹ s⁻¹	3.5 min	0.3 pM	5.4 pM	0.95 nM	0.000316 s⁻¹	333000 M⁻¹ s⁻¹	36.6 min	115 nM	–	–	–	–	–	–	–
B2	–	–	–	–	–	–	–	–	–	–	–	–	0.456 nM	0.0014 s⁻¹	3.08e+06 M⁻¹ s⁻¹	8.25 min	100%	93%	Kd [6]: 0.224 nM; koff [6]: 0.000981 s⁻¹; kon [6]: 4.38e+06 M⁻¹ s⁻¹; t1/2 [6]: 11.8 min
B3	0.6 nM	0.38 nM	0.00135 s⁻¹	3.56e+06 M⁻¹ s⁻¹	8.6 min	–	–	0.32 nM	0.000146 s⁻¹	458000 M⁻¹ s⁻¹	79.1 min	22.3 nM	–	–	–	–	–	–	–
B4	–	–	–	–	–	–	–	–	–	–	–	–	4.94 nM	0.0029 s⁻¹	587000 M⁻¹ s⁻¹	3.98 min	97%	60%	–
B5	1.2 nM	0.37 nM	0.00135 s⁻¹	3.68e+06 M⁻¹ s⁻¹	8.6 min	0.9 pM	8.1 pM	1.27 nM	0.000392 s⁻¹	310000 M⁻¹ s⁻¹	29.5 min	38 nM	–	–	–	–	–	–	–
B6	0.7 nM	3.36 nM	0.00378 s⁻¹	1.13e+06 M⁻¹ s⁻¹	3.1 min	0.3 pM	4.8 pM	0.4 nM	0.000176 s⁻¹	434000 M⁻¹ s⁻¹	65.6 min	203 nM	–	–	–	–	–	–	–
